The source of these data is PMC6393287, “The RRM of the kRNA-editing protein TbRGG2 uses multiple surfaces to bind and remodel RNA”.

Series [1] concerns the target TbRGG2 RRM-Cterm (residues 203–320) (T. brucei). Nature of the series: SEC; RRM-Cterm at 16 mg/ml mixed with equimolar U20 RNA, Superdex 75; 20 mM Tris-HCl pH 7.5, 150 mM NaCl, 5% glycerol, 1 mM DTT. In general terms: SEC sorts molecules by how far they enter the pores of the column.
For series [2] the target is unchanged. Description: SEC; protein alone at 10 mg/ml on Superdex 75; 20 mM Tris-HCl pH 7.5, 150 mM NaCl, 5% glycerol, 1 mM DTT; elution volume compared with protein standards.
The target of another series is TbRGG2 RRM-Cterm W215A (Trypanosoma brucei, UniProt Q389P7 193-310, W205A). Nature of the series: FP; FP: 20 mM Tris-HCl pH 7.5, 5% glycerol, 50 mM NaCl (a further '20 mM' printed without component), 1 nM labelled RNA, 25 C. Conditions: protein: recombinant; tags: His6 cleaved (thrombin); chain copies: 2; label: 5'-fluorescein (FP).
Another series addresses TbRGG2 RRM W215A (Trypanosoma brucei, UniProt Q389P7 193-259, W205A). The series is described as above. Conditions: protein: recombinant; tags: His6 cleaved (thrombin); label: 5'-fluorescein (FP).

On to “TbRGG2 RRM-Cterm (residues 203–320) (domain or fragment)”, for which the stoichiometry N in series [1] and in series [2] was 2 each time.

B1: U20 (ssRNA)
RNA: UUUUUUUUUUUUUUUUUUUU
As to B1, the binding result with TbRGG2 RRM-Cterm W215A and in the series with TbRGG2 RRM W215A was “no binding” throughout.
